Laboratory results: the nanobody polyreactivity screen of Harvey et al. (2022)

Experiment: yeast display, Sf9 membrane polyspecificity reagent, FACS + sequencing; frameworks hold sequencing errors
Outline: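 Nanobodies came from a synthetic yeast display library in Saccharomyces cerevisiae BJ5465, induced with galactose for 36–48 hours and stained for 1 hour at 4 °C with 10% biotinylated, detergent-solubilized Sf9 membrane reagent. Cells were enriched on streptavidin microbeads and then FACS-sorted, with low and high (top ~1%) gates set on anti-HA fluorescence for expression and streptavidin fluorescence for reagent binding. Each polyreactivity label reflects the gate a clone came from. Genes were amplified by colony PCR, sequenced by MiSeq 2 × 250 and filtered by CDR length.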

## QVQLQESGGGLVQAGGSLRLSCAASGYISQSSVMGWYRQASGKEREFVASISYGATTYYADSVKGRFTISRDNAKNTVYLQTNSPKPEDTAVYYCAVWVKRGFSHRYWGQGTQVTVSS
  polyreactivity (PSR sort gate): high polyreactivity

## QVQLVESGGGLVQAGGSLRISCAASGSSFHDYAMGWYTQAPGKERELVAAISSSGTSTYYADSVKGRFTISRDNANNTVYLQMNILKPEDTAVYYCAVYAISFAWSGWTYEDYWGQGTQVNVSS
  polyreactivity (PSR sort gate): low polyreactivity

## QVQLVESGGGLVQAGGSLRLSCAASGNTLYTNAMGWYRQAPGKERELVAVISRGGSTYYADSVKGRFTISRDNAKNTVYLQMNSLKPEDTAVYYCATYGSSWSRAYGYWGQGTQVTVSS
  polyreactivity (PSR sort gate): high polyreactivity

## QVQLEESGGGLVQAGGSLRLSCAASGSTFTGYAMGWYRQAPGKERELVAAIPISGGRTFYADSVKGRFTISRDNAKNTVYLQMNSLKPEDTAFYYCAAYLRGSKYSFDYWGQGTQVTVSS
  polyreactivity (PSR sort gate): high polyreactivity

## QVQLVESGGGLVQAGGSLRLSCAASGSILTDNAMGWYRQAPGKERELVASITGSGGSTYYADSVKGRFTISRDNAKNSVYLQMNSLKRVDTAVYYCAASYRLRYGYWGQGTQVTVSS
  polyreactivity (PSR sort gate): high polyreactivity

## QVQLVESGGGLVQAGGSLRLSCAASGYIFDVNTMGWYRQAPGKERELVAVIRRGGSTTYADSVKGRFTISRDNAKNTVYLQMNSLKPEDTAVYYCNARVTLGRPLFTYLVRYEYWGQGTQVTVSS
  polyreactivity (PSR sort gate): high polyreactivity

## QVQLLESGGGLVQAGGSLRLSCAASGRIFGRYAMGWYRHAPGKERELVAAISQSGARTYYADSVKGRFTFSRDNAKNTVYLQMNSLKPEDTAVYYCAARYKALYDYWGQGTQVTVSS
  polyreactivity (PSR sort gate): high polyreactivity

## QVQLVESGGGLVQAGGSLRLSCAASGITFPDYDMGWYRQAPGKERELVAAITYRSGSTYYADSVKGRFTISRDNAKNTVYLQMNSLKPEDTAVYYCAATVRGVGYRYYYWGQGTQVTVSS
  polyreactivity (PSR sort gate): high polyreactivity

## QVQLVESGGGLVQAGGSLRLSCAASGSTFYLYAMGWYRQAPGKEREFVAAITYSAGSTYYADSVKGRFTISRDNAKNTVYLQMNSLKPEDTAVYYCAARHYAVRRSRYPGKLGYYWGQGTQVTVSS
  polyreactivity (PSR sort gate): high polyreactivity

## QVQLVESGGGLVQAGGSLRLSSAASGLTFLGYTMGWYRQAPGKARELVAAINYSGGSTYYADSVKGSFTISRDNAKNTVYLQMNSLKPEDPAVYYCAARRAVSGGVRMYYWGQGTQVTVSS
  polyreactivity (PSR sort gate): high polyreactivity

## QVQLVESGGGLVQAGGSLRLSCAASGITFSHYAMGWYRQAPGKERELVAGITWSGGRTYYADSVKGRFTISRDNAKNTVYLQMNSLKPEDTAVYYCAPIHRTGYDMDYWGQGTQVTVSS
  polyreactivity (PSR sort gate): low polyreactivity

## QVQLQESGGGLVQAGGSLRLTCAASGYISYLQSMGLYRQAPVKERELVAGITLGTTTYNADSVKGRFTISPDNVQNTVYLQMNSLKPEYTAVYYCAVAVGHYPEFWYWGQGTQVTMSS
  polyreactivity (PSR sort gate): high polyreactivity

## QVQLVESGGGLVQAGGSLRLSCAASGRIFIIYAMGWYRQAPGKERELVAAITSGGGSTRYADSVKGRFPISRDNAKNTVYLQMNSLKPEDTAVYYCAAARITRGRRYDYWGQGTQVTVSS
  polyreactivity (PSR sort gate): high polyreactivity

## QVQLQESGGGLVQAGGSLRLSCAASGFIFARNYIGWYRQAPGKERELVAGIGEGASTNYADSVKGRFTISRDNAKNTVYLQMNSLEPEDTAVYYCAVGDTVLGYHYYWGQGTQVTVSN
  polyreactivity (PSR sort gate): low polyreactivity

## QVQLVESGGGLVQGGGSLRLSCAASGLILRKYAMGWYRQAPGKEREFVAAITQTGSRTYYADSVKGRFTISRDNAKNTVYLQMNSLKPEDTAVYYCNAVNYRSSRDSGYWGQGTQVTVSS
  polyreactivity (PSR sort gate): high polyreactivity

## QVQLVESGGGLVQAGGSLRLSCAASGFILRAYAMGWYRQAPGKEREFVAAITRRGGSTYYADSVKGRFTISRDNAKNTVYLQMNSLKPEDTAVYYCAAKFFSSPHNLGYWGQGTQVTVSS
  polyreactivity (PSR sort gate): high polyreactivity

## QVQLVESGGGLVQAGGSLRLSCPASGSTFQYNPLGWYRQAPGKERELVAAISRRGGSTYYADSVKGRFTISRDNAKNTVYLQMNSLKPEDTAVYYCAVSAYKGYDYWGQGTQVTVSS
  polyreactivity (PSR sort gate): high polyreactivity

## QVQLVESGGGLVQAGGSLRLSCAASGFTFYLYAMGWYRQAPGKERELVAAITWSGGRTYYADSVKGRFTISRDNAKNTVYLQMNSLKPEDTAVYYCAAVVRKQLSAPSDYWGQGTQVTVSS
  polyreactivity (PSR sort gate): high polyreactivity

## QVQLVESGGGLVQAGGSLRLSCAASGRIFGWYAMGWYRQAPGKERELVAAISRGGTTYYADSVKGRFTISRDNAKNTVYLQMNSLKPEDTAVYYCAAPVPYYVPRRNEGDYWGQGTQVTVSS
  polyreactivity (PSR sort gate): low polyreactivity

## QVQLVESGGGLDQAGGSLRLSCAASGSTFDVYAMGRYRQAPGKVRELVAAISRSGGSTYYADSVKGRFTISRDYAKNNVYLQMYSLKPEDTAVYYCNARLARWGSYEYNYWGQGTQVTVSS
  polyreactivity (PSR sort gate): low polyreactivity

## QVHLVESGGGLVQAGGSLRLSCAASGSIFYYNTMGWYRQAPGKERELVAAIRFDDGSTYYADSVKGRFTISRDNAKNTVYLQMNSLKPEDTAVYYCAADWIVVSEFGLDYHMDYWGQGTQVTVSS
  polyreactivity (PSR sort gate): low polyreactivity

## QVQLVESGGGLVQAGGSLRLSCAASGFTLAGYAMGWYRQAPGKERELVAAITSSGGSTFYADSVKGRFTISRDNAKNTVYLQMNSLKPEDTAVYYCAAKWAVVSGYGYWGQGTQVTVSS
  polyreactivity (PSR sort gate): high polyreactivity

## QVQLVESGGGLVQAGGSLRLSCAASGSIYGYYVMGWNRQAPGKERELVAAISRSGGSTYYADSVKGRFTISRDNAKNTFYLQMNSLKPEDTGVYYCAASFAVRYPRLDYWGQGTQVTVSS
  polyreactivity (PSR sort gate): high polyreactivity

## QVQLVESGGGLVQAGGRLRLSCAPSGGIFNPNVMGGYRQSPGKETELVASITGRGGNTYYADSVKGRFTISRDNAKNTVYLQMNSLKPEDTAVYYCAAAIPHHSRVYYWGQGPQVTVSS
  polyreactivity (PSR sort gate): low polyreactivity

## QVQLVESGGCLVQAGGSLRLSCAASGITFRYYPMGWYRQAPGKERELVATISTNGGTTYYADSVKGRFTISRDNAKNTVYLQMNSLKPEDTAVYYCNRKIYVSSARYPSEYGYWGQGTQVTVSS
  polyreactivity (PSR sort gate): high polyreactivity

## QVQLVESGGGLVQAGGSLRLSCAASGRTFHTYAMGWYRQAPGKERELVARITRSGTSTYYADSVKGRFTISRDNAKNTVYLQMNSLKPEDTAVYYCAKPWFLWGYSTSYDWGQGTQVTVSS
  polyreactivity (PSR sort gate): high polyreactivity

## QVQLVESGGGLVQAGGSLRLSCAASGLIFWHYAMGWYRQAPGKERELVARISYGGGSTYYADSVKGRFTISRDNAKNTVYLQMNSLKPEDTAVYYCNAKYYSVSQYWYNYWGQGTQVTVSS
  polyreactivity (PSR sort gate): high polyreactivity

## QVQLVESGGGLVQAGGTLRISCAASGSIFWYYAMGSYRQAPGKERELVAAISKSGGSTYYADSVKVRFTISRDNAKNTVYLQMNSLKQEDTAVYYCAKYGPVIDGVDYWGQGTQVTVSS
  polyreactivity (PSR sort gate): low polyreactivity

## QVQIVESGGGLVQAGGSLRLSFAASGSTFVLYAMGWYRPAPGKERELVAAISGGATTTYADSVKGRFTISRDNAKNSVYLQMNSLKPEDTAVYYCAADFYTFVVSGAAMDYWGQGTQVTVSS
  polyreactivity (PSR sort gate): low polyreactivity

## QVQLVESGGGLVQAGGSLRLSCAASGIILRRYAMGWYRQAPGKERELVAAISSRGGSTYYADSVKGRFTISRDNAKNTVYLQMNSLKPEDTAVYYCANRPYGRSGGSRYDYWGQGTQVTVSS
  polyreactivity (PSR sort gate): high polyreactivity

## QLQLVESGGGLVQAGGSLRLSCAASGRTFFRYVMGWYRQAPGKERELVAAISTRGGSTYYADSVKGRFTISRDNAKNTVYLQMNSLKPEDTAVYYCAARFKVRDYSYNYWGQGTQVTVSS
  polyreactivity (PSR sort gate): high polyreactivity

## QVQLVESGGGLVQAGGSLRLSCAASGRTFRRNAMGWYRQAPGKERELVASITGTGSTTYYADSVKGRFTISRDNAKNTVYLQMNSLKPEDTAVYYCAASSKYQDYWGQGTQVTVSS
  polyreactivity (PSR sort gate): high polyreactivity

## QVQLVESGGGLVHAGGSLRLSCAASGSIFPVNAMGWYRQAPGKERELVAAITSSGGTTYYADSVKGRFTISRDYAKITVYLLMNSLKPVDTAVYYCAADVDVSYWRMEYWGQGTQVTVSS
  polyreactivity (PSR sort gate): high polyreactivity

## QVQLVESGGGLVQAGGSLRLSCAASGRIFVKNAMGWYRQAPGKERELVAGISRGGSTYYADSVKGRFTISRDNAKNTVYLQMNSLKPEDTAVYYCATRNYGRGQFDYWGQGTQVTVSS
  polyreactivity (PSR sort gate): high polyreactivity

## QVQHVESGGGLVQAGGSLRLSCAASGNSFRYYTMGWYRQAPGKEREFVAAISWSGGRTRYADSVKGRFTISRDNAMITVYLQMNSLKPEDTAVYYCAAYTPSYGGRDYWGQGTQVTVSS
  polyreactivity (PSR sort gate): low polyreactivity

## QVQLVESGGGLVQAGGSLRLSCAASGIFYVYAMGWYRQAPGKERELVAAISSDGSTYYADSVKGRFTISRDNAKNTVYLQMNSLKPEDTAVYYCAAVWYWTQDYDYWGQGTQVTVSS
  polyreactivity (PSR sort gate): low polyreactivity

## QVQLVESGGGLVQAGGSLRLSCAASGRTFHQYAKGWYRQAPGKERELVAAISRSGGRTYYADSVKGRFTISRDNAKNTVYLQMNSLIPEDSAVYYCNRDIGGTSVLDDYWGQGTQVTVSS
  polyreactivity (PSR sort gate): low polyreactivity

## QVQLVESGGGLVQAGGSLRISCAASGSTFGGYVLGWYRPAPGKERELVAAISRSGASTYYADSVKGRFTISRDNAKNTVYLQMNSLKPEDTAVYYCAAYQARGLDYWGQGTQVTVSS
  polyreactivity (PSR sort gate): high polyreactivity

## QVQLVESGGGLVQAGGSLRLSCAASGIIFRSYAMGWYRQAPGKERELVAAISRRGGSTYYADSVKGRFTISRDNAKNTVYLQMNSLKPEDTAVYYCAATVLSSPEPYDYWGQGTQVTVSS
  polyreactivity (PSR sort gate): high polyreactivity

## QVQLVESGGGLVQTGGSLRLSCAASGFNFYINAMGWYRQAPVKERELVAAINWRTGSTYYADSVKGRFTISRDNAKNTVYLQMNSLKQEDTAVYYCAAYGYWRRADTEFDYWGQGTQVTVSS
  polyreactivity (PSR sort gate): low polyreactivity

## QVQLVESGGGLVQAGGSLRLSCAASGSTFFTNVMGWYRQAPGKERELVADISSGGDTNYADSVKGRFTISRDNAKNTVYLQMNSLKPEDTAVYYCAVDPNVDYELHGFFFSFDYWGQGTQVTVSS
  polyreactivity (PSR sort gate): low polyreactivity

## QGQLVESGGGLVQAGGSLRLRCAASGFTFAVNTMGWYRQAPVKERELVAAITASGGSTHYADSVKGRFTISRDNAKNNVYLQMNSLKPEDTAVYYCAARPRLYQYYYWGQGTQVTVSS
  polyreactivity (PSR sort gate): high polyreactivity

## QVQLVESGVGLVQAGGSLRLSCAPSGRIFGTYAMVWYRQAPGKERELVASITDRGDSTYADSVKGRFTISRDNAKNTVYLQMNSLKPEDTAVYYCAADGWWHNFYPGTGLDYWGQGTQVTVSS
  polyreactivity (PSR sort gate): low polyreactivity
